T1: human MIC-1 receptor (hGFRAL, GDNF family receptor alpha like) (human, UniProt Q6UXV0 19-394)
T1 sequence (looked up): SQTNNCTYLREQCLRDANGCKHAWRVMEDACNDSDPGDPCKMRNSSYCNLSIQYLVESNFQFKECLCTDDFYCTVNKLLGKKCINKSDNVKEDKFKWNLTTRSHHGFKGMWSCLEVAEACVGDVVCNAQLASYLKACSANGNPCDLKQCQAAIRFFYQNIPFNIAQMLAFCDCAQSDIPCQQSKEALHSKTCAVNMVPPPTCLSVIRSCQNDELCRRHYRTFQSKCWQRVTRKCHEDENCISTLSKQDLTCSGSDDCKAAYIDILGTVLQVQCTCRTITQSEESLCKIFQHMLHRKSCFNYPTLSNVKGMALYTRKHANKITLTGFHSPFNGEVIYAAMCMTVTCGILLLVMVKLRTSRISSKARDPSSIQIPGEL


Target: T1, human MIC-1 receptor (hGFRAL, GDNF …)
Test: cell-based or functional assay

Binder | pERK EC50 (nM) | pERK Emax (%)
(AEE)6AES-MIC-1(SEQ ID NO: 1) (ligand) AEEAEEAEEAEEAEEAEEAESGDHCPLGPGRCCRLHTVRASLEDLGWADWVLSPREVQVTMCIGACPSQFRAANMHAQIKTSLHRLKPDTVPAPCCVPASYNPMVLIQKTDTGVSLQTYDDLLAKDCHCI | 0.8 nM | 100%
AASPAGSPTSTEEGTSESATPESGPG-MIC-1-Δ1-3 (ligand) AASPAGSPTSTEEGTSESATPESGPGGDHCPLGPGRCCRLHTVRASLEDLGWADWVLSPREVQVTMCIGACPSQFRAANMHAQIKTSLHRLKPDTVPAPCCVPASYNPMVLIQKTDTGVSLQTYDDLLAKDCHCI | 0.7 nM | 100%
(GEPS)5-MIC-1 (SEQ ID NO: 1) (ligand) GEPSGEPSGEPSGEPSGEPSARNGDHCPLGPGRCCRLHTVRASLEDLGWADWVLSPREVQVTMCIGACPSQFRAANMHAQIKTSLHRLKPDTVPAPCCVPASYNPMVLIQKTDTGVSLQTYDDLLAKDCHCI | 0.5 nM | 100%
AAPEDEETPEQEGSGSGSGSGS-MIC-1-Δ1-3 (ligand) AAPEDEETPEQEGSGSGSGSGSGDHCPLGPGRCCRLHTVRASLEDLGWADWVLSPREVQVTMCIGACPSQFRAANMHAQIKTSLHRLKPDTVPAPCCVPASYNPMVLIQKTDTGVSLQTYDDLLAKDCHCI | 0.5 nM | 100%
(AEE)5AES-MIC-1-Δ1-3 (ligand) AEEAEEAEEAEEAEEAESGDHCPLGPGRCCRLHTVRASLEDLGWADWVLSPREVQVTMCIGACPSQFRAANMHAQIKTSLHRLKPDTVPAPCCVPASYNPMVLIQKTDTGVSLQTYDDLLAKDCHCI | 0.5 nM | 100%
MIC-1 (SEQ ID NO: 1) (ligand) ARNGDHCPLGPGRCCRLHTVRASLEDLGWADWVLSPREVQVTMCIGACPSQFRAANMHAQIKTSLHRLKPDTVPAPCCVPASYNPMVLIQKTDTGVSLQTYDDLLAKDCHCI | 0.3 nM | 100%
AES-MIC-1-Δ1-3 (ligand) AESGDHCPLGPGRCCRLHTVRASLEDLGWADWVLSPREVQVTMCIGACPSQFRAANMHAQIKTSLHRLKPDTVPAPCCVPASYNPMVLIQKTDTGVSLQTYDDLLAKDCHCI | 0.3 nM | 100%
MIC-1(R2A, N3E) (ligand) AAEGDHCPLGPGRCCRLHTVRASLEDLGWADWVLSPREVQVTMCIGACPSQFRAANMHAQIKTSLHRLKPDTVPAPCCVPASYNPMVLIQKTDTGVSLQTYDDLLAKDCHCI | 0.3 nM | 100%
AASPAGSPTSTEEGTSESATPESGPG-MIC-1 (SEQ ID NO: 1) (ligand) AASPAGSPTSTEEGTSESATPESGPGARNGDHCPLGPGRCCRLHTVRASLEDLGWADWVLSPREVQVTMCIGACPSQFRAANMHAQIKTSLHRLKPDTVPAPCCVPASYNPMVLIQKTDTGVSLQTYDDLLAKDCHCI | 0.4 nM | 100%
AEEAES-MIC-1-Δ1-3 (ligand) AEEAESGDHCPLGPGRCCRLHTVRASLEDLGWADWVLSPREVQVTMCIGACPSQFRAANMHAQIKTSLHRLKPDTVPAPCCVPASYNPMVLIQKTDTGVSLQTYDDLLAKDCHCI | 0.3 nM | 100%
(AEE)2AES-MIC-1-Δ1-3 (ligand) AEEAEEAESGDHCPLGPGRCCRLHTVRASLEDLGWADWVLSPREVQVTMCIGACPSQFRAANMHAQIKTSLHRLKPDTVPAPCCVPASYNPMVLIQKTDTGVSLQTYDDLLAKDCHCI | 0.4 nM | 100%
(AEE)3AES-MIC-1-Δ1-3 (ligand) AEEAEEAEEAESGDHCPLGPGRCCRLHTVRASLEDLGWADWVLSPREVQVTMCIGACPSQFRAANMHAQIKTSLHRLKPDTVPAPCCVPASYNPMVLIQKTDTGVSLQTYDDLLAKDCHCI | 0.5 nM | 100%
AAPEDEETPEQE-MIC-1-Δ1-3 (ligand) AAPEDEETPEQEGDHCPLGPGRCCRLHTVRASLEDLGWADWVLSPREVQVTMCIGACPSQFRAANMHAQIKTSLHRLKPDTVPAPCCVPASYNPMVLIQKTDTGVSLQTYDDLLAKDCHCI | 0.5 nM | 100%

The next lines start with the values.

pERK EC50 (nM) | pERK Emax (%) | Binder
0.3 nM | 100% | TSESATPESGPGTSESATPESGPG-MIC-1(R2A, N3E) (ligand) TSESATPESGPGTSESATPESGPGAAEGDHCPLGPGRCCRLHTVRASLEDLGWADWVLSPREVQVTMCIGACPSQFRAANMHAQIKTSLHRLKPDTVPAPCCVPASYNPMVLIQKTDTGVSLQTYDDLLAKDCHCI
0.4 nM | 100% | MIC-1(R2A, N3E, A47E) (ligand) AAEGDHCPLGPGRCCRLHTVRASLEDLGWADWVLSPREVQVTMCIGECPSQFRAANMHAQIKTSLHRLKPDTVPAPCCVPASYNPMVLIQKTDTGVSLQTYDDLLAKDCHCI
0.4 nM | 100% | MIC-1(R2A, N3E, P11E) (ligand) AAEGDHCPLGEGRCCRLHTVRASLEDLGWADWVLSPREVQVTMCIGACPSQFRAANMHAQIKTSLHRLKPDTVPAPCCVPASYNPMVLIQKTDTGVSLQTYDDLLAKDCHCI
0.5 nM | 100% | MIC-1(R2A, N3E, K69E) (ligand) AAEGDHCPLGPGRCCRLHTVRASLEDLGWADWVLSPREVQVTMCIGACPSQFRAANMHAQIKTSLHRLEPDTVPAPCCVPASYNPMVLIQKTDTGVSLQTYDDLLAKDCHCI
0.5 nM | 100% | MIC-1(R2A, N3E, H18E) (ligand) AAEGDHCPLGPGRCCRLETVRASLEDLGWADWVLSPREVQVTMCIGACPSQFRAANMHAQIKTSLHRLKPDTVPAPCCVPASYNPMVLIQKTDTGVSLQTYDDLLAKDCHCI
0.7 nM | 100% | MIC-1(R2A, N3E, A30E) (ligand) AAEGDHCPLGPGRCCRLHTVRASLEDLGWEDWVLSPREVQVTMCIGACPSQFRAANMHAQIKTSLHRLKPDTVPAPCCVPASYNPMVLIQKTDTGVSLQTYDDLLAKDCHCI
0.8 nM | 100% | MIC-1(R2A, N3E, L68E) (ligand) AAEGDHCPLGPGRCCRLHTVRASLEDLGWADWVLSPREVQVTMCIGACPSQFRAANMHAQIKTSLHREKPDTVPAPCCVPASYNPMVLIQKTDTGVSLQTYDDLLAKDCHCI
0.4 nM | 100% | MIC-1(R2A, N3E, R53E) (ligand) AAEGDHCPLGPGRCCRLHTVRASLEDLGWADWVLSPREVQVTMCIGACPSQFEAANMHAQIKTSLHRLKPDTVPAPCCVPASYNPMVLIQKTDTGVSLQTYDDLLAKDCHCI
0.6 nM | 100% | MIC-1(R2A, N3E, P85E) (ligand) AAEGDHCPLGPGRCCRLHTVRASLEDLGWADWVLSPREVQVTMCIGACPSQFRAANMHAQIKTSLHRLKPDTVPAPCCVPASYNEMVLIQKTDTGVSLQTYDDLLAKDCHCI
0.7 nM | 100% | MIC-1(R2A, N3E, L105E) (ligand) AAEGDHCPLGPGRCCRLHTVRASLEDLGWADWVLSPREVQVTMCIGACPSQFRAANMHAQIKTSLHRLKPDTVPAPCCVPASYNPMVLIQKTDTGVSLQTYDDLEAKDCHCI
0.5 nM | 100% | MIC-1(R2A, N3E, R67E) (ligand) AAEGDHCPLGPGRCCRLHTVRASLEDLGWADWVLSPREVQVTMCIGACPSQFRAANMHAQIKTSLHELKPDTVPAPCCVPASYNPMVLIQKTDTGVSLQTYDDLLAKDCHCI
0.3 nM | 70% | MIC-1(R2A, N3E, M57E) (ligand) AAEGDHCPLGPGRCCRLHTVRASLEDLGWADWVLSPREVQVTMCIGACPSQFRAANEHAQIKTSLHRLKPDTVPAPCCVPASYNPMVLIQKTDTGVSLQTYDDLLAKDCHCI
0.3 nM | 100% | MIC-1(R2A, N3E, K107E) (ligand) AAEGDHCPLGPGRCCRLHTVRASLEDLGWADWVLSPREVQVTMCIGACPSQFRAANMHAQIKTSLHRLKPDTVPAPCCVPASYNPMVLIQKTDTGVSLQTYDDLLAEDCHCI
0.6 nM | 100% | MIC-1(R2A, N3E, R21E) (ligand) AAEGDHCPLGPGRCCRLHTVEASLEDLGWADWVLSPREVQVTMCIGACPSQFRAANMHAQIKTSLHRLKPDTVPAPCCVPASYNPMVLIQKTDTGVSLQTYDDLLAKDCHCI
0.3 nM | 100% | MIC-1(R2A, N3E, A54E) (ligand) AAEGDHCPLGPGRCCRLHTVRASLEDLGWADWVLSPREVQVTMCIGACPSQFREANMHAQIKTSLHRLKPDTVPAPCCVPASYNPMVLIQKTDTGVSLQTYDDLLAKDCHCI
0.4 nM | 100% | SPAGSPTSTEEGTSESATPESGPG-MIC-1 (SEQ ID NO: 1) (ligand) SPAGSPTSTEEGTSESATPESGPGARNGDHCPLGPGRCCRLHTVRASLEDLGWADWVLSPREVQVTMCIGACPSQFRAANMHAQIKTSLHRLKPDTVPAPCCVPASYNPMVLIQKTDTGVSLQTYDDLLAKDCHCI
